# Data published in patent publication US10000775B2, “Biosynthesis of 1-undecene and related terminal olefins” (The Regents of the University of California, priority 2013, dated 2018).
# B1: PFL_0203: hypothetical membrane-associated protein from Pseudomonas fluorescens Pf-5 converting C10-C16 fatty acids into 1-alkenes (protein, listed as Pseudomonas protegens)
# chain: MQGISASPERMNAQQRAAHVRQVVLARGDELRRRFPLLRHQDALGAGILAFALSGMLGSALLYVTGHLAWWACLLLNAFFASLTHELEHDLIHSMYFRKQRLPHNLMLGLVWLARPSTINPWVRRHLHLNHHKVSGSESDIEERAITNGEPWGIARLLMVGDNMMAAFIRLLRAPGARRKLGILVRTLAVYAPLALLHWGAWYVFLGFHGANGVAALLGSPIQWSQDTASLMHYVDIAVVVIIGPNVLRTFCLHFVSSNMHYYGDIEPGNVIQQTQVLNPWWMWPLQAFCCNFGSTHGIHHFVVREPFYIRQMTASVAHKVMAEMGVRFNDFGTFARANRFTRQEREAMQPAHNARA
# Key:
# [1] = In vitro activity of PFL_4321 and PFL_0203 toward fatty acids with various chain lengths; assay type: biochemical; parameters: key to In vitro activity toward C8:0 / In vitro activity toward C10:0 / In vitro activity toward C12:0 / In vitro activity toward C14:0 / In vitro activity toward C16:0: ✓: indicates production of the corresponding 1-alkene from the indicated substrate; x: indicates failure to produce the corresponding 1-alkene from the indicated substrate
# Method: A typical condition is as follows: 1 mL of reaction mixture contains 50 mM MES buffer (pH 6.2), 300 mM NaCl, 100 μM (NH4)2Fe(SO4)2, 1 mM ascorbic acid, 100 μM fatty acid substrate or analogs, and 10 μM enzyme. The reaction was performed in a sealed headspace vial at 30° C., initiated by adding lauric acid and quenched by injecting equal volume of 5 M NaOH. 1-Undecene production was analyzed and quantified by using the SPME-GCMS method. To determine the kinetic parameters of PFL_4321 on lauric acid, initial velocities at 1, 10, 20, 50, 100, and 150 μM of lauric acid were measured (25 mM lauric acid solution was prepared by adding 0.5% tergitol and heating at 65° C. for 10 min). The reactions were quenched at 2, 4, 6, 8, and 10 seconds, and the acquired turnover rates were fit to the Michaelis-Menten equation using GraphPad Prism to obtain kcat and Km. The kcat and Km of myristic acid and capric acid were determined similarly.
# Unless otherwise noted, all experiments with PFL_0203 as described herein were performed using similar assays, procedures, and techniques as used in a given corresponding experiment as described in Example 1.
# The fatty acid substrate specificity of PFL_0203 was investigated in a series of in vitro experiments. […] Thus, PFL_4321 and PFL_0203 share some overlap in suitable substrates; PFL_4321 is able to act on C10-C14 fatty acid substrates, and PFL_0203 is able to act on C10-C16 fatty acid substrates.
# E. coli = assay: 1-undecene production in E. coli overexpressing PFL_4321, PFL_0203 or homologs, with or without UcFatB2; assay type: cell-based; details: E. coli, one-day shake flask culture in LB media without exogenous lauric acid
# Method: E. coli, P. aeruginosa PAO-1, and P. aeruginosa PA14 strains were grown in 5 mL of LB medium overnight at 37° C., while all the other Pseudomonas and Acinetobacter strains were grown at 30° C. […] The culture was shaken in a sealed 20 mL headspace vial (Agilent certified) containing a stir bar at 30° C. for 36 hr. After incubation, an SPME fiber (30 μm polydimethylsiloxane, Supelco, Sigma-Aldrich Group, Bellefonte, Pa.) was manually inserted into the headspace vial and incubated at 25° C. for 12.5 min. GC-MS analysis was conducted on a Varian CP-3800 instrument equipped with a Varian 320-MS. […] The signals of the 1-alkenes were identified and quantified by comparison with authentic samples (MP Biomedicals), which were diluted in ethyl acetate, added to 5 mL of culture medium in a sealed headspace vial, and sampled by the same SPME-GCMS method as described above.
# […] 1-Undecene production was detected by using the SPME-GCMS method. […]
# To investigate whether PFL_0203 was facilitating the production of 1-undecene, this gene was individually expressed in E. coli and the cells were monitored for 1-undecene production. […]
# [2] = In vitro 1-undecene production by purified PFL_0203 with E. coli crude extract; assay type: biochemical; details: purified PFL_0203 mixed with E. coli crude extract and exogenous lauric acid
molecule,measurement,setting,value
B1,activity on C8 or C18 fatty acids,"[1]; in vitro, C8 or C18 fatty acids",failed to act
same,conversion of C10-C16 fatty acids into their corresponding [M-1] 1-alkenes,"[1]; in vitro, C10-C16 fatty acids",converted
same,In vitro activity toward C8:0,[1]; substrate C8:0,x
same,In vitro activity toward C10:0,[1]; substrate C10:0,trace
same,In vitro activity toward C12:0,[1]; substrate C12:0,✓
same,In vitro activity toward C14:0,[1]; substrate C14:0,✓
same,In vitro activity toward C16:0,[1]; substrate C16:0,trace
same,titer of 1-undecene,E. coli,~0.2 µg/mL
same,1-undecene production,[2],resulted in 1-undecene production
